Laboratory results taken from patent US20260116991A1.

Tests used:
[1] = target: monkey GPC3 on HEK293T-monkey GPC3 cells (monkey); experiment: FACS on HEK293T-monkey GPC3 cells
[2] = target: monkey GPC3-His protein (monkey); experiment: ELISA, monkey GPC3-His coated; antibody 2.67 nM
[3] = target: monkey GPC3-His protein (monkey); experiment: ELISA, monkey GPC3-His coated; antibody 0.53 nM
[4] = target: monkey GPC3-His protein (monkey); experiment: ELISA, monkey GPC3-His coated; antibody 0.02 nM
[5] = target: monkey GPC3-His protein (monkey); experiment: ELISA, monkey GPC3-His coated; antibody 0.004 nM
[6] = target: monkey GPC3-His protein (monkey); experiment: ELISA, monkey GPC3-His coated; antibody 0.0008 nM
[7] = target: monkey GPC3-His protein (monkey); experiment: ELISA, monkey GPC3-His coated; antibody 13.33 nM
[8] = target: monkey GPC3-His protein (monkey); experiment: ELISA, monkey GPC3-His coated; antibody 66.66 nM
[9] = target: monkey GPC3-His protein (monkey); experiment: ELISA, monkey GPC3-His coated; antibody 0.11 nM

B1: hAb005LH1L1a (antibody, human IgG1, V domains shown)
VH: EVQLVQSGAEVKKPGASVKVSCKASGYTFTDYEMHWVRQAPGQGLEWMGAIDPETGNTAYIQKFKGRVTMTTDKSTSTAYMELRSLRSDDTAVYYCTRFYSYSHWGQGTTVTVSS
VL: DIVMTQTPLSLPVTPGEPASISCRSSQSLVHSDGNTYLHWYLQKPGQSPQLLIYKVSNRFSGVPDRFSGSGSGTDFTLKISRVEAEDVGVYYCSQNTHVPPTFGGGTKVEIK
[1]
  EC50: 71.6 nM
  Max MFI: 2910 MFI
[2]
  OD450 nm: 0.111
[3]
  OD450 nm: 0.053
[4]
  OD450 nm: 0.039
[5]
  OD450 nm: 0.045
[6]
  OD450 nm: 0.06
[7]
  OD450 nm: 0.195
[8]
  OD450 nm: 0.578
[9]
  OD450 nm: 0.066

B2: hAb005LH2L1a (antibody, human IgG1, V domains shown)
VH: EVQLVQSGAEVKKPGASVKVSCKASGYTFTDYEMHWVRQAPGQGLEWMGAIDPETGNTAYIQKFKGRVTLTTDKSTSTAYMELRSLRSDDTAVYYCTRFYSYSHWGQGTTVTVSS
VL: DIVMTQTPLSLPVTPGEPASISCRSSQSLVHSDGNTYLHWYLQKPGQSPQLLIYKVSNRFSGVPDRFSGSGSGTDFTLKISRVEAEDVGVYYCSQNTHVPPTFGGGTKVEIK
[1]
  EC50: 32.8 nM
  Max MFI: 3490 MFI
[2]
  OD450 nm: 0.136
[3]
  OD450 nm: 0.056
[4]
  OD450 nm: 0.041
[5]
  OD450 nm: 0.04
[6]
  OD450 nm: 0.099
[7]
  OD450 nm: 0.276
[8]
  OD450 nm: 0.652
[9]
  OD450 nm: 0.042

B3: hAb005LH3L1b (antibody, human IgG1, V domains shown)
VH: EVQLVQSGAEVKKPGASVKVSCKASGYTFTDYEMHWVRQAPGQGLEWIGAIDPETGNTAYIQKFKGRATLTTDKSTSTAYMELRSLRSDDTAVYYCTRFYSYSHWGQGTTVTVSS
VL: DIVMTQTPLSLPVTPGEPASISCRSSQSLVHSNRNTYLHWYLQKPGQSPQLLIYKVSNRFSGVPDRFSGSGSGTDFTLKISRVEAEDVGVYYCSQNTHVPPTFGGGTKVEIK
[1]
  EC50: 2.37 nM
  Max MFI: 22100 MFI
[2]
  OD450 nm: 1.33
[3]
  OD450 nm: 1.27
[4]
  OD450 nm: 0.663
[5]
  OD450 nm: 0.237
[6]
  OD450 nm: 0.088
[7]
  OD450 nm: 1.27
[8]
  OD450 nm: 1.18
[9]
  OD450 nm: 1.11

B4: hAb005LH3L1a (antibody, human IgG1, V domains shown)
VH: EVQLVQSGAEVKKPGASVKVSCKASGYTFTDYEMHWVRQAPGQGLEWIGAIDPETGNTAYIQKFKGRATLTTDKSTSTAYMELRSLRSDDTAVYYCTRFYSYSHWGQGTTVTVSS
VL: DIVMTQTPLSLPVTPGEPASISCRSSQSLVHSDGNTYLHWYLQKPGQSPQLLIYKVSNRFSGVPDRFSGSGSGTDFTLKISRVEAEDVGVYYCSQNTHVPPTFGGGTKVEIK
[1]
  EC50: 112 nM
  Max MFI: 2920 MFI
[2]
  OD450 nm: 0.098
[3]
  OD450 nm: 0.042
[4]
  OD450 nm: 0.039
[5]
  OD450 nm: 0.041
[6]
  OD450 nm: 0.04
[7]
  OD450 nm: 0.161
[8]
  OD450 nm: 0.527
[9]
  OD450 nm: 0.038

B5: hAb003LH2L1 (antibody, human IgG1, V domains shown)
VH: EVQLVQSGAEVKKPGSSVKVSCKASGYRFTDYEMHWVRQAPGQGLEWMGTIDPETGNTAYTQKFMDRVTITADKSTSTAYMELSSLRSEDTAVYYCTRGYSFTYWGQGTLVTVSS
VL: DIVMTQTPLSLPVTPGEPASISCRSSQNIVHSNGNTYLQWYLQKPGQSPQLLIFKVSNRFSGVPDRFSGSGSGTDFTLKISRVEAEDVGVYYCFQGSHVPFTFGQGTKLEIK
[1]
  EC50: 1.32 nM
  Max MFI: 29600 MFI
[2]
  OD450 nm: 2.57
[3]
  OD450 nm: 2.58
[4]
  OD450 nm: 1.22
[5]
  OD450 nm: 0.413
[6]
  OD450 nm: 0.175
[7]
  OD450 nm: 2.44
[8]
  OD450 nm: 2.51
[9]
  OD450 nm: 2.16

B6: hAb003LH3L1b (antibody, human IgG1, V domains shown)
VH: EVQLVQSGAEVKKPGSSVKVSCKASGYRFTDYEMHWVRQAPGQGLEWMGTIDPETGNTAYTQKFMDRVTLTADKSTSTAYMELSSLRSEDTAVYYCTRGYSFTYWGQGTLVTVSS
VL: DIVMTQTPLSLPVTPGEPASISCRSSQNIVHSNRNTYLQWYLQKPGQSPQLLIFKVSNRFSGVPDRFSGSGSGTDFTLKISRVEAEDVGVYYCFQGSHVPFTFGQGTKLEIK
[1]
  EC50: 1.28 nM
  Max MFI: 31300 MFI
[2]
  OD450 nm: 2.4
[3]
  OD450 nm: 2.5
[4]
  OD450 nm: 1.17
[5]
  OD450 nm: 0.432
[6]
  OD450 nm: 0.165
[7]
  OD450 nm: 2.4
[8]
  OD450 nm: 2.53
[9]
  OD450 nm: 2.1

B7: hAb005LH3L1 (antibody, human IgG1, V domains shown)
VH: EVQLVQSGAEVKKPGASVKVSCKASGYTFTDYEMHWVRQAPGQGLEWIGAIDPETGNTAYIQKFKGRATLTTDKSTSTAYMELRSLRSDDTAVYYCTRFYSYSHWGQGTTVTVSS
VL: DIVMTQTPLSLPVTPGEPASISCRSSQSLVHSNGNTYLHWYLQKPGQSPQLLIYKVSNRFSGVPDRFSGSGSGTDFTLKISRVEAEDVGVYYCSQNTHVPPTFGGGTKVEIK
[1]
  EC50: 3.09 nM
  Max MFI: 22200 MFI
[2]
  OD450 nm: 1.27
[3]
  OD450 nm: 1.15
[4]
  OD450 nm: 0.609
[5]
  OD450 nm: 0.226
[6]
  OD450 nm: 0.088
[7]
  OD450 nm: 1.13
[8]
  OD450 nm: 1.24
[9]
  OD450 nm: 0.997

B8: hAb005LH2L1 (antibody, human IgG1, V domains shown)
VH: EVQLVQSGAEVKKPGASVKVSCKASGYTFTDYEMHWVRQAPGQGLEWMGAIDPETGNTAYIQKFKGRVTLTTDKSTSTAYMELRSLRSDDTAVYYCTRFYSYSHWGQGTTVTVSS
VL: DIVMTQTPLSLPVTPGEPASISCRSSQSLVHSNGNTYLHWYLQKPGQSPQLLIYKVSNRFSGVPDRFSGSGSGTDFTLKISRVEAEDVGVYYCSQNTHVPPTFGGGTKVEIK
[1]
  EC50: 2.88 nM
  Max MFI: 23400 MFI
[2]
  OD450 nm: 1.24
[3]
  OD450 nm: 1.28
[4]
  OD450 nm: 0.649
[5]
  OD450 nm: 0.222
[6]
  OD450 nm: 0.164
[7]
  OD450 nm: 1.15
[8]
  OD450 nm: 1.2
[9]
  OD450 nm: 1.13

B9: hAb003LH3L1a (antibody, human IgG1, V domains shown)
VH: EVQLVQSGAEVKKPGSSVKVSCKASGYRFTDYEMHWVRQAPGQGLEWMGTIDPETGNTAYTQKFMDRVTLTADKSTSTAYMELSSLRSEDTAVYYCTRGYSFTYWGQGTLVTVSS
VL: DIVMTQTPLSLPVTPGEPASISCRSSQNIVHSDGNTYLQWYLQKPGQSPQLLIFKVSNRFSGVPDRFSGSGSGTDFTLKISRVEAEDVGVYYCFQGSHVPFTFGQGTKLEIK
[1]
  EC50: 3.27 nM
  Max MFI: 24500 MFI
[2]
  OD450 nm: 2.38
[3]
  OD450 nm: 2.21
[4]
  OD450 nm: 0.633
[5]
  OD450 nm: 0.202
[6]
  OD450 nm: 0.089
[7]
  OD450 nm: 2.3
[8]
  OD450 nm: 2.39
[9]
  OD450 nm: 1.59

B10: hAb003LH3L1 (antibody, human IgG1, V domains shown)
VH: EVQLVQSGAEVKKPGSSVKVSCKASGYRFTDYEMHWVRQAPGQGLEWMGTIDPETGNTAYTQKFMDRVTLTADKSTSTAYMELSSLRSEDTAVYYCTRGYSFTYWGQGTLVTVSS
VL: DIVMTQTPLSLPVTPGEPASISCRSSQNIVHSNGNTYLQWYLQKPGQSPQLLIFKVSNRFSGVPDRFSGSGSGTDFTLKISRVEAEDVGVYYCFQGSHVPFTFGQGTKLEIK
[1]
  EC50: 1.58 nM
  Max MFI: 30900 MFI
[2]
  OD450 nm: 2.36
[3]
  OD450 nm: 2.22
[4]
  OD450 nm: 0.963
[5]
  OD450 nm: 0.357
[6]
  OD450 nm: 0.16
[7]
  OD450 nm: 2.36
[8]
  OD450 nm: 2.53
[9]
  OD450 nm: 1.85

B11: hAb003LH2L1a (antibody, human IgG1, V domains shown)
VH: EVQLVQSGAEVKKPGSSVKVSCKASGYRFTDYEMHWVRQAPGQGLEWMGTIDPETGNTAYTQKFMDRVTITADKSTSTAYMELSSLRSEDTAVYYCTRGYSFTYWGQGTLVTVSS
VL: DIVMTQTPLSLPVTPGEPASISCRSSQNIVHSDGNTYLQWYLQKPGQSPQLLIFKVSNRFSGVPDRFSGSGSGTDFTLKISRVEAEDVGVYYCFQGSHVPFTFGQGTKLEIK
[1]
  EC50: 3.09 nM
  Max MFI: 23200 MFI
[2]
  OD450 nm: 2.17
[3]
  OD450 nm: 2.12
[4]
  OD450 nm: 0.475
[5]
  OD450 nm: 0.16
[6]
  OD450 nm: 0.15
[7]
  OD450 nm: 2.34
[8]
  OD450 nm: 2.23
[9]
  OD450 nm: 1.37

B12: hAb005LH1L1 (antibody, human IgG1, V domains shown)
VH: EVQLVQSGAEVKKPGASVKVSCKASGYTFTDYEMHWVRQAPGQGLEWMGAIDPETGNTAYIQKFKGRVTMTTDKSTSTAYMELRSLRSDDTAVYYCTRFYSYSHWGQGTTVTVSS
VL: DIVMTQTPLSLPVTPGEPASISCRSSQSLVHSNGNTYLHWYLQKPGQSPQLLIYKVSNRFSGVPDRFSGSGSGTDFTLKISRVEAEDVGVYYCSQNTHVPPTFGGGTKVEIK
[1]
  EC50: 2.17 nM
  Max MFI: 23400 MFI
[2]
  OD450 nm: 1.21
[3]
  OD450 nm: 1.16
[4]
  OD450 nm: 0.594
[5]
  OD450 nm: 0.103
[6]
  OD450 nm: 0.069
[7]
  OD450 nm: 1.22
[8]
  OD450 nm: 1.1
[9]
  OD450 nm: 0.94

B13: hAb006LH1L1 (antibody, human IgG1, V domains shown)
VH: EVQLVQSGAEVKKPGSSVKVSCKASGYTFSDYEIHWVRQAPGQGLEWMGAIDPKTGNTAYNQKFMGRVTITADKSTSTAYMELSSLRSEDTAVYYCTRYFSFAYWGQGTLVTVSS
VL: DIVMTQTPLSLPVTPGEPASISCRSSQTFVHSNGNTYLQWYLQKPGQSPQLLIYKVSNRFSGVPDRFSGSGSGTDFTLKISRVEAEDVGVYYCFQGSHVPYTFGQGTKLEIK
[1]
  EC50: 1.53 nM
  Max MFI: 33500 MFI
[2]
  OD450 nm: 2.43
[3]
  OD450 nm: 2.5
[4]
  OD450 nm: 1.1
[5]
  OD450 nm: 0.369
[6]
  OD450 nm: 0.121
[7]
  OD450 nm: 2.56
[8]
  OD450 nm: 2.48
[9]
  OD450 nm: 2.02
